Measured values reported in the supplement of paper PMC10567573.

B1: C22orf15 (parent)
chain: ITQSWQVSVRVQPRGRAHLLPNPY
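Note: lentivirally expressed fusions sorted by FACS into six bins by GFP to DsRed ratio, PSI derived from sequencing read proportions per bin multiplied by bin number.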

Variants of: B1
Test: protein stability index of a GFP-peptide fusion (GPS, HEK-293T) (PSI 1-6); higher = more stable
Conditions: c terminus: a fixed tail appended
For ITQSWQVSVQVQPRGRAHLLPNPY, the protein stability index was 2.09. Variant ITQSWQVSVIVQPRGRAHLLPNPY has a protein stability index of 3.79. In the case of ITQSWQVSVDVQPRGRAHLLPNPY, the protein stability index is reported as 2.05. Work on ITQSWQVSVCVQPRGRAHLLPNPY yielded a protein stability index of 1. With ITQSWQVSVGVQPRGRAHLLPNPY the protein stability index was 2.89. Variant ITQSWQVSVFVQPRGRAHLLPNPY has a protein stability index of 2.62. Variant ITQSWQVSVEVQPRGRAHLLPNPY has a protein stability index of 1.32. ITQSWQVSVKVQPRGRAHLLPNPY showed a protein stability index of 2.41. In the case of IPQSWQVSVRVQPRGRAHLLPNPY, the protein stability index is reported as 2.43. IWQSWQVSVRVQPRGRAHLLPNPY showed a protein stability index of 2.62. IAQSWQVSVRVQPRGRAHLLPNPY gave a protein stability index of 1.43. IYQSWQVSVRVQPRGRAHLLPNPY gave a protein stability index of 3.42. In the case of ILQSWQVSVRVQPRGRAHLLPNPY, the protein stability index is reported as 2.27. With IKQSWQVSVRVQPRGRAHLLPNPY the protein stability index was 1.87. With IDQSWQVSVRVQPRGRAHLLPNPY the protein stability index was 2.46. IFQSWQVSVRVQPRGRAHLLPNPY showed a protein stability index of 2.43. Variant IHQSWQVSVRVQPRGRAHLLPNPY has a protein stability index of 1.45. ISQSWQVSVRVQPRGRAHLLPNPY gave a protein stability index of 1.77. For IEQSWQVSVRVQPRGRAHLLPNPY, the protein stability index was 1.69. Variant IGQSWQVSVRVQPRGRAHLLPNPY has a protein stability index of 1.77. Variant IMQSWQVSVRVQPRGRAHLLPNPY has a protein stability index of 3.15. In the case of IQQSWQVSVRVQPRGRAHLLPNPY, the protein stability index is reported as 2.53. Variant ICQSWQVSVRVQPRGRAHLLPNPY has a protein stability index of 3.3. In the case of ITQSWQVSIRVQPRGRAHLLPNPY, the protein stability index is reported as 2.64. ITQSWQVSHRVQPRGRAHLLPNPY showed a protein stability index of 2.88. In the case of ITQSWQVSMRVQPRGRAHLLPNPY, the protein stability index is reported as 1.34. Variant ITQSWQVSERVQPRGRAHLLPNPY has a protein stability index of 2.26. For ITQSWQVSDRVQPRGRAHLLPNPY, the protein stability index was 2.02. Work on ITQSWQVSNRVQPRGRAHLLPNPY yielded a protein stability index of 2.45. In the case of ITQSWQVSARVQPRGRAHLLPNPY, the protein stability index is reported as 2.19. In the case of ITQSWQVSTRVQPRGRAHLLPNPY, the protein stability index is reported as 1.55. For ITQSWQVSPRVQPRGRAHLLPNPY, the protein stability index was 1.81. In the case of ITQSWQVSLRVQPRGRAHLLPNPY, the protein stability index is reported as 2.7. Variant ITQSWQVSSRVQPRGRAHLLPNPY has a protein stability index of 1.91. ITQSWQVSQRVQPRGRAHLLPNPY gave a protein stability index of 2.44. ITQSWQVSFRVQPRGRAHLLPNPY showed a protein stability index of 1.74. Work on ITQSWQVSKRVQPRGRAHLLPNPY yielded a protein stability index of 1.91. ITQSWPVSVRVQPRGRAHLLPNPY gave a protein stability index of 3.07. With ITQSWIVSVRVQPRGRAHLLPNPY the protein stability index was 2.74. For ITQSWTVSVRVQPRGRAHLLPNPY, the protein stability index was 1.77. For ITQSWAVSVRVQPRGRAHLLPNPY, the protein stability index was 1.09. Work on ITQSWSVSVRVQPRGRAHLLPNPY yielded a protein stability index of 1.9. ITQSWYVSVRVQPRGRAHLLPNPY showed a protein stability index of 1.96. Variant ITQSWNVSVRVQPRGRAHLLPNPY has a protein stability index of 1.73. ITQSWDVSVRVQPRGRAHLLPNPY showed a protein stability index of 2.15. ITQSWFVSVRVQPRGRAHLLPNPY gave a protein stability index of 4.73. ITQSWEVSVRVQPRGRAHLLPNPY gave a protein stability index of 1.92. With KTQSWQVSVRVQPRGRAHLLPNPY the protein stability index was 2.18. QTQSWQVSVRVQPRGRAHLLPNPY gave a protein stability index of 1.31. For STQSWQVSVRVQPRGRAHLLPNPY, the protein stability index was 1.78. TTQSWQVSVRVQPRGRAHLLPNPY gave a protein stability index of 1.9. VTQSWQVSVRVQPRGRAHLLPNPY showed a protein stability index of 1.41. Work on NTQSWQVSVRVQPRGRAHLLPNPY yielded a protein stability index of 2.24. Work on YTQSWQVSVRVQPRGRAHLLPNPY yielded a protein stability index of 3.3. Variant CTQSWQVSVRVQPRGRAHLLPNPY has a protein stability index of 4.55. GTQSWQVSVRVQPRGRAHLLPNPY gave a protein stability index of 1.92. For LTQSWQVSVRVQPRGRAHLLPNPY, the protein stability index was 1.5. In the case of PTQSWQVSVRVQPRGRAHLLPNPY, the protein stability index is reported as 1.64. In the case of MTQSWQVSVRVQPRGRAHLLPNPY, the protein stability index is reported as 1.26. Variant HTQSWQVSVRVQPRGRAHLLPNPY has a protein stability index of 2.61. Variant RTQSWQVSVRVQPRGRAHLLPNPY has a protein stability index of 1.68. For DTQSWQVSVRVQPRGRAHLLPNPY, the protein stability index was 2.12. In the case of FTQSWQVSVRVQPRGRAHLLPNPY, the protein stability index is reported as 2.74. ITQSWQVRVRVQPRGRAHLLPNPY showed a protein stability index of 2.73. ITQSWQVAVRVQPRGRAHLLPNPY showed a protein stability index of 1.27. Variant ITQSWQVMVRVQPRGRAHLLPNPY has a protein stability index of 2.55. With ITQSWQVYVRVQPRGRAHLLPNPY the protein stability index was 1.8. With ITQSWQVFVRVQPRGRAHLLPNPY the protein stability index was 2.21. In the case of ITQSWQVNVRVQPRGRAHLLPNPY, the protein stability index is reported as 1.46. ITQSWQVCVRVQPRGRAHLLPNPY gave a protein stability index of 1.12. In the case of ITQSWQVEVRVQPRGRAHLLPNPY, the protein stability index is reported as 1.54. In the case of ITQSWQVHVRVQPRGRAHLLPNPY, the protein stability index is reported as 2.28. Variant ITQSWQVGVRVQPRGRAHLLPNPY has a protein stability index of 2.39. ITQSWQVPVRVQPRGRAHLLPNPY showed a protein stability index of 1.71. For ITQSWQVDVRVQPRGRAHLLPNPY, the protein stability index was 2.65. For ITQSWQVTVRVQPRGRAHLLPNPY, the protein stability index was 3.34. Variant ITQSDQVSVRVQPRGRAHLLPNPY has a protein stability index of 2.32. For ITQSRQVSVRVQPRGRAHLLPNPY, the protein stability index was 2.21. Variant ITQSTQVSVRVQPRGRAHLLPNPY has a protein stability index of 1.48. For ITQSQQVSVRVQPRGRAHLLPNPY, the protein stability index was 1.81. With ITQSAQVSVRVQPRGRAHLLPNPY the protein stability index was 1.86. With ITQSHQVSVRVQPRGRAHLLPNPY the protein stability index was 2.57. Variant ITQSLQVSVRVQPRGRAHLLPNPY has a protein stability index of 3.62. In the case of ITQSPQVSVRVQPRGRAHLLPNPY, the protein stability index is reported as 2.56. In the case of ITQSKQVSVRVQPRGRAHLLPNPY, the protein stability index is reported as 3.36. For ITQSNQVSVRVQPRGRAHLLPNPY, the protein stability index was 2.86. ITQSFQVSVRVQPRGRAHLLPNPY gave a protein stability index of 2.29. ITQSEQVSVRVQPRGRAHLLPNPY showed a protein stability index of 2.97. Work on ITQSYQVSVRVQPRGRAHLLPNPY yielded a protein stability index of 1.84. In the case of ITQSSQVSVRVQPRGRAHLLPNPY, the protein stability index is reported as 2.69. In the case of ITQSVQVSVRVQPRGRAHLLPNPY, the protein stability index is reported as 3.07. Work on ITQSIQVSVRVQPRGRAHLLPNPY yielded a protein stability index of 4.28. With ITQSCQVSVRVQPRGRAHLLPNPY the protein stability index was 2.25. In the case of ITQSMQVSVRVQPRGRAHLLPNPY, the protein stability index is reported as 1.61.
